Measured values taken from patent US20260263521A1, “ANTI-CD200R1 ANTIBODY AND USE THEREOF” (AIMED BIO INC., priority 2023, published 2026).

What was measured:
[1] = biological target: T1, CD200R1 on Jurkat-CD200R1 cells (Homo sapiens, UniProt Q8TD46); assay: Cell binding assay (flow cytometry), Jurkat-CD200R1 cells; format: cell-based
T1 construct: host or cells: Jurkat
T1 sequence (Q8TD46 25-348): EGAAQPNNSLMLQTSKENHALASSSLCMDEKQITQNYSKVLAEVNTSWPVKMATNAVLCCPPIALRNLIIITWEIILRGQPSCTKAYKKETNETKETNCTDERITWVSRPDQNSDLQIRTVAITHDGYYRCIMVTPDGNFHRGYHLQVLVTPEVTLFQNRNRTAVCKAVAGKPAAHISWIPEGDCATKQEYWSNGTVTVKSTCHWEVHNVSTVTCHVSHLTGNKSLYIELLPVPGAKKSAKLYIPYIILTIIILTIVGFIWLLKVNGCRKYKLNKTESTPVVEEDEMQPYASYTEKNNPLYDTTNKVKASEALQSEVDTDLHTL
Method: The binding ability of the antibodies identified using unique multifaceted antibody discovery technology was identified in HH (CRL-2105) cells, which endogenously express CD200R1, and Jurkat-CD200R1 cells (Source: DiscoverX), which were generated by intranuclear injection of CD200R1 cDNA.
HH and Jurkat-CD200R1 cells were maintained in RPMI 1640 medium supplemented with 10% heat-inactivated FBS and 1% Penicillin/Streptomycin (P/S). The cells were washed by centrifugation at 130 g for 5 minutes. The cells were seeded onto 96-well round-bottom plates (SPL, #34296) at a density of 1×10^5 cells/well in Flow cytometry staining buffer (Invitrogen, #00-4222-26) or FACS buffer. The cells were treated with all 16 substances and the positive control LY3454738 (US 2020/0087395, I-4P, at Eli Lilly) a concentration of 500 nM in the IgG1 form. After incubation for 1 hour at 4° C., the cells were treated with Alexa-647 Goat anti-human IgG (H+L) cross-adsorbed secondary antibody (Invitrogen, #A21445) and incubated at 4° C. for an additional 30 minutes. […]
Cell-binding ability was determined in the same manner as in Example 12. For the six active substances primarily selected in Example 12, the isotype was changed to IgG4 or the LALAPG gene was mutated, and binding activity was determined in the two cell lines mentioned above.
Binding ability was determined in HH, an endogenous T cell line with high CD200R1 expression, and two additional overexpressing cell lines: U937-CD200R overexpressing cells, generated by intranuclear injection of human CD200R1 CDNA into the monocytic cell line U937 (CRL-1593.2) (Source: UMC Utrecht, the Netherlands) and Jurkat-CD200R overexpressing cells, were also cells engineered using a similar method.
All cell lines were maintained in RPMI 1640 medium supplemented with 10% heat-inactivated FBS and 1% penicillin/streptomycin (P/S) and cell binding was determined in the same manner as in Example 12. […]
Specific binding ability was determined using P001009 WT and antibody-optimized mutants, P001009v1, P001009v2, P001009v3, and P001009v4. […]

cynomolgus CD200R1 = assay: SPR binding kinetics, cynomolgus CD200R1; settings: cynomolgus CD200R1-his captured on anti-His CM5 chip, 1:1 Langmuir fit
Method: The CD200R1-specific binding ability of the antibodies (P001009 wt, P001009 v1, P001009 v2, P001009 v3, P001009 v4) selected in Example 14 was analyzed using surface plasma resonance (SPR). For the experiment, 30 μg/mL of an anti-histidine antibody was conjugated to a CM5 biacore chip via an amine bond while allowing to flow at 10 μl/min (10,000 RU). Then, 0.25 μg/mL of human or cynomolgus CD200R1 with dual His-tags was captured onto the completed chip for 60 seconds, and the binding ability of each antibody was analyzed. All experiments were performed by association of antibodies for 120 seconds and dissociation of antibodies for 600 seconds. The resulting graphs were fitted using a 1:1 Langmuir binding kinetic model (FIG. 16), and the kinetics of each antibody were calculated.

B1: P001009: phage display anti-CD200R1 clone; VH SEQ ID NO: 79, VL SEQ ID NO: 94 (antibody, V domains shown)
VH: EVQLLESGGGLVQPGGSLRLSCAASGFTFSSYDMSWVRQAPGKGLEWVSWISHGGGSIYYADSVKGRFTISRDNSKNTLYLQMNSLRAEDTAVYYCARDAPAYSAPLFDYWGQGTLVTVSS
VL: QSVLTQPPSASGTPGQRVTISCSGSSSNIGNNAVNWYQQLPGTAPKLLIYYDSNRPSGVPDRFSGSKSGTSASLAISGLRSEDEADYYCAAWDDSLSGYVFGGGTKLTVL
- cell binding ability, IgG4 or LALAPG mutants ([1]; Jurkat-CD200R1 cells): highest efficacy
- Ka (cynomolgus CD200R1): 5.63e+06 M⁻¹ s⁻¹

B2: P001009v1: P001009 variant, LC S52 and LC S94 substituted with K and R; VH SEQ ID NO: 79 (antibody, V domains shown)
VH: EVQLLESGGGLVQPGGSLRLSCAASGFTFSSYDMSWVRQAPGKGLEWVSWISHGGGSIYYADSVKGRFTISRDNSKNTLYLQMNSLRAEDTAVYYCARDAPAYSAPLFDYWGQGTLVTVSS
VL: QSVLTQPPSASGTPGQRVTISCSGSSSNIGNNAVNWYQQLPGTAPKLLIYYDKNRPSGVPDRFSGSKSGTSASLAISGLRSEDEADYYCAAWDDRLSGYVFGGGTKLTVL
- binding ability to Jurkat-CD200R1 ([1]; serial dilution from 100 nM): highest binding ability
- Ka (cynomolgus CD200R1): 5.23e+06 M⁻¹ s⁻¹
